Measurements: the RNAGym collection of RNA variant scans (doi:10.1073/pnas.2313332121)

B1: TPR t1 (parent)
chain: GACCAAUCUGCCCUCAGAGCUCGAGAACAUCUUCGGAUGCAGAGGAGGCAGGCUUCGGUGGCGCGAUAGCGCCAACGUCCUCAACCUCCAAUGCAUCCCACCACAUGAUGAUGCCUGAAGAGCCUUGGUUUUUUG

Variants of: B1
Assay: polymerase ribozyme fitness, log enrichment relative to wild type (log ratio); higher = more active; in vitro selection for triplet polymerase activity
Outline: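 Both subunits of a heterodimeric triplet polymerase ribozyme were given their own mutant library, built by PCR and transcribed. Each library was annealed with a biotinylated primer, the partner subunit and triplets, incubated frozen at −7 °C, and its extended constructs gel-excised, captured on streptavidin beads and amplified by RT-PCR, all in one round done in triplicate. Fitness is the logarithm of genotype enrichment relative to wild-type enrichment, with replicates averaged by inverse-variance weighting. That logarithm is base 2, and Illumina-sequenced genotypes needed ≥10 input reads and ≥1 read per output.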

Variant	polymerase ribozyme fitness (log ratio)
GACCAAUCUGCCCUCAGAGCUCGAGAACAUCUUCGGAUGCAGAGGAGGCUGGCUUCGGUGGCGCGAUAGCGCCAACGUCCUCAACCUCCAAUGCAUCCCACCACAUGAUGAAGCCUGAAGAGCCCUGGUUUUUUG [A50U U112A U125C]	-0.475
GACCAAUCUGCCCUCAGAGCUCGAGAACAUCUUCGGAUGCAGAGGAGGCUGGCUUCGGUGGCGCGAUAGCGCCAACGUCCUCAACCUCCAAUGCAUCCCACCACAUGAUGAUGCCUUAAGAGCCUUGGUUUUUUG [A50U G117U]	-2.6
GACCAAUCUGCCCUCAGAGCUCGAGAACAUCUUCGGAUGCAGAGGAGGCUGGCUUCGGUGGCUCGAUAGCGCCAACGUCCUCAACCUCCAAUGCAUCCCACCAAAUGAUGAUGCCUGAAGAGCCUUGGUUUUUUG [A50U G63U C104A]	-5.48
GACCAAUCUGCCCUCAGAGCUCGAGAACAUCUUCGGAUGCAGAGGAGGCAAGCUUCGGUGGCGCGAUAGCGCCAACGUCCUCAACCUCCAAUGCAUCCCACCACAUGAUGAUCCCUGAAGAUCCUUGGUUUUUUU [G51A G113C G122U G135U]	-7.38
GACCAAUCUGCCCUCAGAGCUCGAGAACAUCUUCGGAUGCAGAGGAGGCAAGCUUCGGUGGCGCGAUAGCGCCAACGUCCUCAACCUUCAAUGCAUCCCACCACAUGAUGAUGCCUGAAGAGCCUUGGUUUUUUG [G51A C88U]	-2.93
GACCAAUCUGCCCUCAGAGCUCGAGAACAUCUUCGGAUGCAGAGGAGGCAAGCUUCGGUGGCGCCAUAGCGCCAACGUCCUCAACCUCCAAUGCAUCCCACCACAUGAUGAUGGCUGAAGAGCCUUGGUUUUUUG [G51A G65C C114G]	-6.09
GACCAAUCUGCCCUCAGAGCUCGAGAACAUCUUCGGAUGCAGAGGAGGCAAGCUUCGGUGGCGCGAUAGCGCCAACGUCCUCAACUACCAAUGCAUCCCACCACAUGAUGAUCCCUGAAGAGCCUUGGUUUUUUG [G51A C86U U87A G113C]	-6.8
GACCAAUCUGCCCUCAGAGCUCGAGAACAUCUUCGGAUGCAGAGGAGGCUGGCUUCGGUGGCCCGAUAGCGCCAACGACCUCAACCUCCAAUGCAUCCCACCACAUGAUGACGCCGGACGAGCCUUGGUUUUUUG [A50U G63C U78A U112C U116G A119C]	-6.63
GACCAAUCUGCCCUCAGAGCUCGAGAACAUCUUCGGAUGCAGAGGAGGCAAGCUUAGGUGGCGCGAUAGCGCCAACGUCCUCAACCUCCAAUACAUCCCACCACAUGAUGAUGUCUUAAGAGCCUUGGUUUUUUG [G51A C56A G93A C114U G117U]	-6.47
GACCAAUCUGCCCUCAGAGCUCGAGAACAUCUUCGGAUGCAGAGGAGGCAAGCUUCGGUGGCGCGAUAGCGCCAACGUCCUCAAUCUCCAAUGCAUCCCACCACAUGAUGAUGCCUGAAGAGCCUUGGUUUUUUG [G51A C85U]	-3.77
GACCAAUCUGCCCUCAGAGCUCGAGAACAUCUUCGGAUGCAGAGGAGGCAAGCUUCGGUGGUGCGAUAGCGCCAACGUCCUCAACCUCCAAUGCAUCCCACCACAUGAUGAUGCCUGAAGAGCCUUGGUUUUUUG [G51A C62U]	-2.43
GACCAAUCUGCCCUCAGAGCUCGAGAACAUCUUCGGAUGCAGAGGAGGCAAGCUUCGGUGGCGCGAUAGCGCCAACGUCCUCAACCACCAAUGCAUCCCAACACAUGAUGAUGCCUGAAGAGCCUUGGUUUUUUG [G51A U87A C101A]	-4.9
GACCAAUCUGCCCUCAGAGCUCGAGAACAUCUUCGGAUGCAGAGGAGGCAAGCUUCGGUGGCGCGAUAGCGCCAACGUCCUCAACCUCCAAUGCAUCCCAUCACAUGAUGAUGCCUAAAGAGCCUUGGUUUUUUG [G51A C101U G117A]	-4.58
GACCAAUCUGCCCUCAGAGCUCGAGAACAUCUUCGGAUGCAGAGGAGGCAAGCUUCGGUGGCGCGAUAGCGCCAACGUCCUCAACCUCCAAUGCAUCCUACCACAUGAUGAUGCCUGAAGAGCCUUGGUUUUUUG [G51A C99U]	-7.64
GACCAAUCUGCCCUCAGAGCUCGAGAACAUCUUCGGAUGCAGAGGAGGCAAGCUUCGGUGGCGCGAUAGCGCCAACGUCCUCAACCUCCAAUGCAUCCCACCACAUGAUGACGCCUGAAGAGCCUUGGUUUUUUG [G51A U112C]	-2.05
GACCAAUCUGCCCUCAGAGCUCGAGAACAUCUUCGGAUGCAGAGGAGGCAAGCUUGGGUGGCGCGAUAGCGCCAACGUCCUCAACCUCCAAUGCAUCCCACCACAUGAUGAUGCCUGAAGAGCUUUGGUUUUUUG [G51A C56G C124U]	-1.06
GACCAAUCUGCCCUCAGAGCUCGAGAACAUCUUCGGAUGCAGAGGAGGCUGGCUUCGGUGGCGCGAUAGCGCCAACGUCCUCAACCUCCAAUGCAUCCCACCACAUGAUGAUGCCAGAAGAGCCUUGGUUUUUUG [A50U U116A]	-4.25
GACCAAUCUGCCCUCAGAGCUCGAGAACAUCUUCGGAUGCAGAGGAGGCUGGCUUCGAUGGCGCGAUAGCGCCAACGCCCUCAACCUCCAAUGCAUCCCACCGCAUGAGGAUGCCUGAAGAGCCUUGGUUUUUUG [A50U G58A U78C A103G U109G]	-5.98
GACCAAUCUGCCCUCAGAGCUCGAGAACAUCUUCGGAUGCAGAGGAGGCUGGCUUCGGUGGCGCGAUAGCGCCAACGUCCACAACCUCCAAUGCAUCCCCCCACAUGAUGAUGCCUGAAGAGCCUUGGUUUUUUG [A50U U81A A100C]	-1.2
GACCAAUCUGCCCUCAGAGCUCGAGAACAUCUUCGGAUGCAGAGGAGGCAAGCUUCGGUGGCGAGAUAGCGCCAACGUCCUCAACCUCCAAUGCAUCCCACCACAUGAUGAUGCCUGAAGAGCCUUGGUUUUUUG [G51A C64A]	-6.96
GACCAAUCUGCCCUCAGAGCUCGAGAACAUCUUCGGAUGCAGAGGAGGCAAGCUUCCGUGGCGCGAUAGCGCCAACGUCCUCAACCUCCAAUGCAUCCCACCACAUGAUGAUGACUGAAGAGCCUUGGUUUUUUG [G51A G57C C114A]	-3.38

Variant	polymerase ribozyme fitness (log ratio)
GACCAAUCUGCCCUCAGAGCUCGAGAACAUCUUCGGAUGCAGAGGAGGCUGGCUUCGGUGGCGCGAUAGCGCCAACGUCCUCAACCUCCAAUACAUCCCACCACAUGAUGAUGCCUGAAGAGCCUUGGUUUUUUG [A50U G93A]	-1.21
GACCAAUCUGCCCUCAGAGCUCGAGAACAUCUUCGGAUGCAGAGGAGGCAAGCUUCGGUGGCGCGAUAGCGCCAACGUCCUCAACCUCCAAUGCAUCCCACCACAAGAUGAUGCCUGAAGAGCCUUGGUUUUUUG [G51A U106A]	-2.35
GACCAAUCUGCCCUCAGAGCUCGAGAACAUCUUCGGAUGCAGAGGAGGCUGGCUUCGGCGGCGCGAUAGCGCCAACGUCCUCAACCUCCAAUGCAUCCCACCACAUGAUGAUGCCUGAAGAGCCUUGGUUUUUUG [A50U U59C]	-0.6
GACCAAUCUGCCCUCAGAGCUCGAGAACAUCUUCGGAUGCAGAGGAGGCUGCCUUCGGUGGCGCGAUAGCGCCAACUUCCUCAACCUCCAAUGCAUCCCACCACAUGAUGAUGCCUGAAGAGCCUUGGUCUUUUG [A50U G52C G77U U130C]	-3.17
GACCAAUCUGCCCUCAGAGCUCGAGAACAUCUUCGGAUGCAGAGGAGGCUGGCUUCGGUGUCGCGAUAGCGCCAACGUCCUCAACUUCCAAUGCAUCCCACCACAUGAUGAUGCCUGAAGAGCCUUGGUUUUUUG [A50U G61U C86U]	-1.34
GACCAAUCUGCCCUCAGAGCUCGAGAACAUCUUCGGAUGCAGAGGAGGCUGGCUUCGGUGGCGCGAUAGCGCCAACGUCCUCAACCUCCAAUGCAUCCCACCACAUGAUGAUGCCUCAACAGCCUUGGUUUUUUG [A50U G117C G120C]	-5.84
GACCAAUCUGCCCUCAGAGCUCGAGAACAUCUUCGGAUGCAGAGGAGGCAAGCUUCGGUGGCGCGAUAGCGCCAACGUCCUCAACCUCCAAUGCAACCCACCACAUGAUGAUGCCUGAAGAGCCUUGGUUUUUUG [G51A U96A]	-4.59
GACCAAUCUGCCCUCAGAGCUCGAGAACAUCUUCGGAUGCAGAGGAGGCUGGCUUCGGUAGCGCGAUAGCGCCAACGUCCUCAACCUCCAAUACAUCCCACCACAUGAUGAUGCCUGAAGAGCCUUGGUUUUUUG [A50U G60A G93A]	-1.39
GACCAAUCUGCCCUCAGAGCUCGAGAACAUCUUCGGAUGCAGAGGAGGCUGGCUUCGGUGGCGCGAUAACGCCAACGUCCUCAACCUCCAAUGCAUCCCACCACAUGAUGAUGCCUGAAGAGCCUUGGUUUUUUG [A50U G69A]	-3.65
GACCAAUCUGCCCUCAGAGCUCGAGAACAUCUUCGGAUGCAGAGGAGGCAAGCUUCGGUUGCGCGAUAGCGCCAACGUCCUCAACCUCCAAUGCAUCCCACCACAUGAUGAUACCAGAAGAGCCUUGGUUUUUUG [G51A G60U G113A U116A]	-7.25
GACCAAUCUGCCCUCAGAGCUCGAGAACAUCUUCGGAUGCAGAGGAGGCAAGCUUCGGUGGCGCGUUAGCGCCAACGUCCUCAACCUCCAAUGCAUCCCACCAGUUGAUGAUGCCUGAAGGGCCUUGGUUUUUUG [G51A A66U C104G A105U A121G]	-7.62
GACCAAUCUGCCCUCAGAGCUCGAGAACAUCUUCGGAUGCAGAGGAGGCAAGAUUCGGUGGCGCGAUAGCGCCAACGUCCUCAACCUCCAAUGCAUCCCACCACAUGAUGAUGCCUGAAGAGCCUUGGUUUUAUG [G51A C53A U133A]	-2.17
GACCAAUCUGCCCUCAGAGCUCGAGAACAUCUUCGGAUGCAGAGGAGGCAAGCGUCGGUGGCGCGAUAGCGCGAACGUCCUCAACCUCCAAUGCAUCUCACCACAUGAUGAUGCCUGAAGAGCCUUGGUUUUUUG [G51A U54G C73G C98U]	-5.39
GACCAAUCUGCCCUCAGAGCUCGAGAACAUCUUCGGAUGCAGAGGAGGCUGGCUUCGGUGGCGCGAUAUCGCCAACGUCCCCAACCUCCAAUGCAUCCCACCACAUGAUGAUGACUGAAGAGCCUUGGUUUUUUG [A50U G69U U81C C114A]	-2.1
GACCAAUCUGCCCUCAGAGCUCGAGAACAUCUUCGGAUGCAGAGGAGGCUAGCUUCGGUAGCGCGAUAGCGCCAACGUCCUCAACCUCCAAUGCAUCCCACCACAUGAUGAUGCCUGAAGAGCCUUGGUUUUUUG [A50U G51A G60A]	-4.34
GACCAAUCUGCCCUCAGAGCUCGAGAACAUCUUCGGAUGCAGAGGAGGCAAGCUUCGGUGGUGCGAUAGCGCCAACGUCCUCAACCUCCAAUGCAUCCCACCACAUGAUGAAUCCUGAAGAGCCUUGGUUUUUUG [G51A C62U U112A G113U]	-4.77
GACCAAUCUGCCCUCAGAGCUCGAGAACAUCUUCGGAUGCAGAGGAGGCUGGCUUCGGUGCCGCGAUAGCGCCAACGUCCUCAACCUUCAAUGCAUCCCACCACAUGAUGAUCCCUGAAGAGCCUUGGUUUUUUG [A50U G61C C88U G113C]	-5.11
GACCAAUCUGCCCUCAGAGCUCGAGAACAUCUUCGGAUGCAGAGGAGGCUGGCUUCGGUGGCCCGAUAGCGCCAACGUCCUCAACCUCCAAUGCAUCCCACCACAUGAUGAAGCCUGGAGAGCCUUGGUUUUUUG [A50U G63C U112A A118G]	-2.37
GACCAAUCUGCCCUCAGAGCUCGAGAACAUCUUCGGAUGCAGAGGAGGCUGACUUCGGUGGCGCGAUAGCGCCAACGUCCUCAUCCUCCAAUGCAUCCCACCACAUGAUGAUGCCUGAAGAGCCUUGUUUUUUUG [A50U G52A A84U G128U]	-5.16
GACCAAUCUGCCCUCAGAGCUCGAGAACAUCUUCGGAUGCAGAGGAGGCAAGCUUCGGUGGCGCGAUAGCGCCAACGUCCCCAACCUCCAAUGCAUUCCACCACAUGAUGAUGCGUGAAGAGCCUUGGUUUUUUG [G51A U81C C97U C115G]	-5.02
GACCAAUCUGCCCUCAGAGCUCGAGAACAUCUUCGGAUGCAGAGGAGGCAAGCUUCGGUAGCGCGAUAGCGCCAACGUCCUCAACCUCCAAUGCAUCCCACCACAUGAUGAUGCCUGAAGAGCCUUGGUUUUUUG [G51A G60A]	-1.34
